From patent US5580747A, “Non-radioactive enzyme assay” (Promega Corporation, priority 1994, dated 1996)
No end group written: not given here.

Key:
protein kinase C = assay: Detection of small amounts of protein kinase C, agarose gel; type: biochemical; details: 30 minutes at room temperature, UV light
Experimental: Fifteen microliters of Promega Peptide 5 (SEQ ID NO:5) were incubated in protein kinase C reaction buffer (20 mM HEPES (pH 7.4), 1.3 mM CaCl2, 1 mM DTT, 10 mM MgCl2, 200 μg/mL phosphatidyl serine, 15 mM ATP), and 1 μg Protein Kinase C for 2 hours at room temperature in a final volume of 40 μl. The reaction was stopped by heating the reaction solution to 95° C. for ten minutes.
Five microliters of Promega Peptide 5 (SEQ ID NO:5) and 6 (SEQ ID NO:6) or 2.5 μl of Promega Peptide 4 (SEQ ID NO:4) were incubated with a solution containing 18 μl protein kinase C reaction buffer (described in Example 13) and decreasing amounts of protein kinase C, containing between 60 ng and 60 picograms (pg), for 30 minutes at room temperature. Reactions were stopped by heating the reaction mixtures to 95° C. for 10 minutes.
Referring to FIG. 11, the detection of phosphorylated peptide was observed under UV light, and detection limits noted. Six hundred picograms of protein kinase C could be detected by Promega Peptide 4 (SEQ ID NO:4), 3ng by Promega Protein 5 (SEQ ID NO:5), and 3 ng by Promega Protein 6 (SEQ ID NO:6).

[1] = test system: Thermus aquaticus culture supernate; assay: Assays of proteases in crude media samples; type: biochemical; details: 90 minutes at 37° C.
Experimental: (§1) Samples of culture supernate from stationary phase cultures of Thermus aquaticus (T. aquaticus) and Brevibacterium albidum (B. albidum) were made by centrifugation of a stationary phase culture at 12,000×g for 2 minutes and transfer of the supernate to fresh tubes. Diluted stocks of Promega Peptides 3 (SEQ ID NO:3), 5 (SEQ ID NO:5) and 6 (SEQ ID NO:6) were made by dilution of the original stocks of these peptides with an equal volume of 50 mM ammonium bicarbonate, pH 7.8. In three independent tubes per peptide, 10 μL of these diluted stocks were incubated with either 10 μL water, 10 μL Thermus supernate, or 10 μL Brevibacterium supernate. The incubations were performed for 90 minutes at 37° C. The samples were then loaded in a 0.9% agarose gel made with 20 mM Tris-Cl pH 8.0. The gel was then electrophoresed at 120 V for 30 minutes, and was photographed under UV light on a transilluminator as described above.
(§2) Reference is made to FIG. 15, which is a photograph of the agarose gel used to analyze the peptide species produced in the digestion of Promega Peptides 3 (SEQ ID NO:3), 5 (SEQ ID NO:5), and 6 (SEQ ID NO:6) by supernates of cultures of T. aquaticus and B, albidum. The gel was photographed under UV light as described in Example 1 and the gel is oriented such that the end of the gel which was oriented towards the negative electrode is towards the top of the photograph.

[2] = test system: Brevibacterium albidum culture supernate; assay: Assays of proteases in crude media samples; type: biochemical; details: 90 minutes at 37° C.
Experimental: as §1, §2

Endoprotease Lys C = molecular target: T1, Endoprotease Lys C (Lysobacter enzymogenes, UniProt Q7M135); assay: Assay of pure proteases using modified peptides, agarose gel; type: biochemical; details: 90 minutes at 37° C., 0.1 to 0.001 μg protease
T1 construct: purchased Promega Corp., Madison, Wis
T1 sequence (Q7M135 whole entry): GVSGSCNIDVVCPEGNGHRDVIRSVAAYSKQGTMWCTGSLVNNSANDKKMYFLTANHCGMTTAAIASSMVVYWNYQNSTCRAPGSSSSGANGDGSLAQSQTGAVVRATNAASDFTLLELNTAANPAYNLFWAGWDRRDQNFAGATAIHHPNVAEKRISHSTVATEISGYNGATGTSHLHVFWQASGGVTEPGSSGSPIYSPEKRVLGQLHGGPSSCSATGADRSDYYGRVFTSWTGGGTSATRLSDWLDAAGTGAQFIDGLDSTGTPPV
Experimental: (§3) The proteases Modified Trypsin [sequencing grade] (Promega Corp., Madison, Wis.) and Endoprotease Lys C [sequencing grade] were dissolved in A buffer (50 mM ammonium bicarbonate, pH 7.8). These stocks were diluted with A buffer to produce stocks containing […] protease per 4 μl of liquid. Independent incubations of 4 μl of each of the different protease concentrations were performed with Promega Peptides 5 (SEQ ID NO:5), 6 (SEQ ID NO:6), 7 (SEQ ID NO:7) (5 μl of the stocks described above) in a 20 μl reaction mixture containing: 5 μl peptide; 4 μl protease; and 11 μl A buffer.
(§4) After 90 minutes at 37° C., the samples were loaded into a 0.8% agarose gel made in 20 mM Tris, pH 8.0. The samples were electrophoresed at 150 V. When the control peptide sample had migrated about 0.5 inch from the loading well, the gels were photographed on a transilluminator as described above.
(§5) Reference is made to FIG. 13, which is a photograph of the agarose gel used to analyze the peptide species produced in the digestion of Promega Peptide 6 (SEQ ID NO:6) by modified trypsin and Endoprotease Lys C. The gel was photographed under UV light as described in Example 1 and the gel is oriented such that the end of the gel which was oriented towards the negative electrode is towards the top of the photograph. The lanes are numbered from left to right. […]

[3] = molecular target: catalytic subunit of cAMP-dependent protein kinase (Homo sapiens, UniProt P17612); assay: Quantitation of cAMP-dependent protein kinase activity using a spectrophotometer; type: biochemical; details: for A570: phosphorylated peptide band
Experimental: Three microliters of Promega Peptide 7 (SEQ ID NO:7) were phosphorylated by varying amounts of cAMP-dependent protein kinase. The reactions took place in a volume of 20 μl in a solution containing 3 mM ATP, 20 mM HEPES buffer (pH 7.4), and between 50 ng and 1 μg catalytic subunit of cAMP-dependent protein kinase. The mixture was incubated for 30 minutes at room temperature, and the reactions were stopped by heating the mixture at 95° C. for five minutes.
At this time, the phosphorylated and non-phosphorylated species had separated and could be detected by ultraviolet light. The phosphorylated peptide was then excised from the gel with a razor blade, and the agarose was melted by heating at 95° C. for 2 minutes. Two hundred microliters of the melted agarose were then diluted to 400 μl in a solution containing 2M urea and 1M acetic acid. The absorbance of the solution at 570 nm was then determined in a Milton-Roy Spectronic 1201 spectrophotometer.

[4] = molecular target: catalytic subunit of the cAMP-dependent protein kinase (Homo sapiens, UniProt P17612); assay: Quantitation of cAMP-dependent protein kinase activity using microtiter plate reader; type: biochemical; details: for A570: phosphorylated peptide band
Experimental: Eight microliters of Promega Peptide 7 (SEQ ID NO:7) was phosphorylated by the catalytic subunit of the cAMP-dependent protein kinase. The amount of kinase used in the assay varied from 4.5 μg to 0.9 ng, diluted from a stock solution of 2.25 mg/ml. The reactions took place in a volume of 24 μl for 30 minutes at room temperature, and were stopped by heating the solutions at 95° C. for five minutes.
After heating, glycerol was added to the solutions to a final concentration of 4%. The solutions were then loaded on a 0.8% agarose gel, which was run at 100 V until the phosphorylated and non-phosphorylated bands had separated and migrated from the wells.
The agarose containing the phosphorylated peptide was excised from the gel with a razor blade and placed into Eppendorph tubes. The agarose was melted, and 145 μl agarose solution were diluted in urea and acetic acid to a final concentration of 2M and 1M, respectively, in a final volume of 250 μl.
The solutions were placed in the wells of a microtiter plate and allowed to cool. After the agarose re-solidified, the absorbance of the wells at 570 nanometers (nm) was read.

[5] = molecular target: cAMP-dependent protein kinase (Homo sapiens, UniProt P17612); assay: Radioactive kinase assay of peptide substrates (32P incorporation, P81 filter); type: biochemical
Experimental: Radioactive kinase assays were carried out as described in Walton et al., as modified and described here. Five μl Promega Peptide 1 (SEQ ID NO:1) were added to a reaction mixture containing 20mM Tris HCl (pH 7.4), 10 mM MgCl2, 4 micrograms (μg) of cAMP-dependent protein kinase (both catalytic and regulatory subunits), in the presence or absence of 2 micromolar (μM) cAMP, in a volume of 50 μl.
The reaction began with the addition of 10 μl of solution containing 0.15 mM [γ32 P] ATP (about 0.05 Ci/mmol) and 10 mM MgCl2. After a two minute incubation, the reaction was terminated by the addition of 30 μl of H3 PO4 to a final concentration of 0.5%. To measure incorporation of radiolabelled phosphate into the peptide substrate, half the reaction mixture was spotted onto a Whatmann P81 filter. The filters were washed four times in a solution containing 0.5% H3 PO4. Each wash lasted at least five minutes. After washing, the radioactivity present on the filters was measured in a scintillation counter.

alkaline phosphatase = details: peptide phosphorylated by protein kinase C; pH 9.2, 37° C. for 45 minutes
Experimental: Promega Peptide 6 (SEQ ID NO:6) was phosphorylated to provide a substrate for alkaline phosphatase in the following manner: 40 μl Promega Peptide 6 (SEQ ID NO:6) were incubated in a solution containing 20 mM HEPES (pH 7.4), 1.67 mM CaCl2, 1 mM dithiothreotol, 10 mM MgCl2, 100 μg/mL phosphatidylserine, 2 mM ATP, and 50 ng protein kinase C in a final volume of 100 μl at 37° C. for 1.5 hours. The reaction was stopped by incubating the mixture at 95° C. for 10 minutes.
After phosphorylation, 0.1M Tris (pH 9.5) was added to a final pH of 9.2. Fifteen microliters of this solution were mixed with between 0.08 to 200 pmoles of alkaline phosphatase in a final volume of 20 μl and incubated at 37° C. for 45 minutes. The reaction was stopped by freezing the mixtures in a dry ice/ethanol bath. Glycerol was added to a final concentration of 4%, and the samples were run on a 0.8% agarose gel at 75 V for 20 minutes.

Modified Trypsin = molecular target: T2, Modified Trypsin (Sus scrofa, UniProt P00761); assay: Assay of pure proteases using modified peptides, agarose gel; type: biochemical; details: 90 minutes at 37° C., 0.1 to 0.001 μg protease
T2 construct: purchased Promega Corp., Madison, Wis
T2 sequence (P00761 9-231): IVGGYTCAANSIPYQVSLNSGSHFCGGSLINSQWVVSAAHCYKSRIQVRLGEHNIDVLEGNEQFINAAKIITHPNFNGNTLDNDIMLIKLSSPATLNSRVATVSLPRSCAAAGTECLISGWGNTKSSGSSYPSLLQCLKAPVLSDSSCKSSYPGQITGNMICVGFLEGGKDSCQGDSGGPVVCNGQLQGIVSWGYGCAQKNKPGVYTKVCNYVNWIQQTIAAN
Experimental: as §3, §4, §5

[6] = 8 μl peptide, 30 minutes at room temperature

Promega Peptide 4: Lissamine Rhodamine-tagged peptide *-R-F-A-R-K-G-S-L-R-Q-K-N-V (SEQ ID NO:4) ({Lissamine Rhodamine}-RFARKGSLRQKNV)
amount of protein kinase C that could be detected (protein kinase C): Six hundred

Sulforhodamine 101 Derivative of V^6 A^5 Kemptide ({sulforhodamine 101}-LRRASVA) [Promega Peptide 3]
proteolysis by T. aquaticus supernate [1]: proteolytic cleavage of the peptide had occurred | proteolysis by B. albidum supernate [2]: novel peptide species made in small amount

Promega Peptide 7: Lissamine Rhodamine-tagged Kemptide *-L-R-R-A-S-L-G (SEQ ID NO:7) ({Lissamine Rhodamine}-LRRASLG)
digestion by Endoprotease Lys C (Endoprotease Lys C): did not show any digestion | A570 -Blank ([3]; Kinase 0.05 μg (1:200)): 0.009 | A570 -Blank ([3]; Kinase 0.10 μg (1:100)): 0.021 | A570 -Blank ([3]; Kinase 0.20 μg (1:50)): 0.029 | A570 -Blank ([3]; Kinase 0.50 μg (1:20)): 0.130 | A570 -Blank ([3]; Kinase 1.0 μg (1:10)): 0.163 | A570 ([3]; Kinase 0.05 μg (1:200)): 0.024 | A570 ([3]; Kinase 0.10 μg (1:100)): 0.036 | A570 ([3]; Kinase 0.20 μg (1:50)): 0.044 | A570 ([3]; Kinase 0.50 μg (1:20)): 0.145 | A570 ([3]; Kinase 1.0 μg (1:10)): 0.178 | kinase amount below which it could not be detected [4, 6]: 0.009 µg | kinase amount that saturated the system [4, 6]: more than 0.9 μg | A570 -Blank ([4]; Kinase 0.0009 μg (1:10,000)): 0.009 | A570 -Blank ([4]; Kinase 0.009 μg (1:1,000)): 0.010 | A570 -Blank ([4]; Kinase 0.09 μg (1:100)): 0.022 | A570 -Blank ([4]; Kinase 0.9 μg (1:10)): 0.107 | A570 -Blank ([4]; Kinase 4.5 μg (1:2)): 0.106 | A570 ([4]; Kinase 0.0009 μg (1:10,000)): 0.106 +/- 0.013 | A570 ([4]; Kinase 0.009 μg (1:1,000)): 0.107 +/- 0.003 | A570 ([4]; Kinase 0.09 μg (1:100)): 0.119 +/- 0.002 | A570 ([4]; Kinase 0.9 μg (1:10)): 0.204 +/- 0.003 | A570 ([4]; Kinase 4.5 μg (1:2)): 0.203 +/- 0.005 | correlation coefficient between kinase concentration and absorbance ([4]; range of 0.009 to 0.9 μg kinase added): 0.999

LRRASLG [Kemptide]
CPM (+cAMP) ([5]; 2 μM cAMP, 4 μg cAMP-dependent protein kinase, [γ32P]ATP, two minute incubation): 471,840 CPM | Stimulation ([5]; CPM +cAMP relative to no cAMP): 82 | CPM (no cAMP) ([5]; no cAMP, 4 μg cAMP-dependent protein kinase, [γ32P]ATP, two minute incubation): 5760 CPM

Promega Peptide 5: Lissamine Rhodamine-tagged peptide *-Q-R-R-Q-R-K-S-R-R-T-I (SEQ ID NO:5) ({Lissamine Rhodamine}-QRRQRKSRRTI)
proteolysis by T. aquaticus supernate [1]: proteolysis of the peptide had taken place | proteolysis by B. albidum supernate [2]: proteolysis of the peptide had taken place | amount of protein kinase C that could be detected (protein kinase C): 3 ng

Promega Peptide 6: Lissamine Rhodamine-tagged peptide *-P-L-S-R-T-L-S-V-A-A-K-K (SEQ ID NO:6) ({Lissamine Rhodamine}-PLSRTLSVAAKK)
proteolysis by T. aquaticus supernate [1]: proteolytic cleavage of the peptide had occurred | proteolysis by B. albidum supernate [2]: proteolytic cleavage of the peptide had occurred | amount of protein kinase C that could be detected (protein kinase C): 3 ng | amount of alkaline phosphatase at which dephosphorylation of the phosphorylated peptide could be seen (alkaline phosphatase): 60 ng | digestion by Endoprotease Lys C (Endoprotease Lys C): fluorescent species with mobilities altered | digestion by Modified Trypsin (Modified Trypsin): fluorescent species with mobilities altered
